Numbering of substitutions follows the chain as printed.
T1: cynomolgus CD3 on T cells (cynomolgus monkey)
T1 chain: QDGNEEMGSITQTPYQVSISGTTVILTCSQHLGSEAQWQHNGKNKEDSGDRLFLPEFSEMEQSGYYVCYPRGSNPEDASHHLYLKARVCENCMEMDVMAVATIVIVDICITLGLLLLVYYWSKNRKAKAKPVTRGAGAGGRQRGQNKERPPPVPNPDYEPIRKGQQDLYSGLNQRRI

B1: BSPSMA/CD3-1900 CD3 arm (antibody, V domains shown)
VH: EVQLVESGGGLVQPGRSLRLSCAASGFTFDDYSMHWVRQAPGKGLEWVSGISWNSGSIGYADSVKGRFTISRDNAKNSLYLQMNSLRAEDTALYYCAKDGSGYGKFYHYGMDVWGQGTTVTVSS
VL: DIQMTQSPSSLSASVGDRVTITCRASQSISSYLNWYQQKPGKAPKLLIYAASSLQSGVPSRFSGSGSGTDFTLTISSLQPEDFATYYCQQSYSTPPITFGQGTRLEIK
B2: BSPSMA/CD3-1200 CD3 arm (antibody, V domains shown)
VH: B1 VH with M111L
VL: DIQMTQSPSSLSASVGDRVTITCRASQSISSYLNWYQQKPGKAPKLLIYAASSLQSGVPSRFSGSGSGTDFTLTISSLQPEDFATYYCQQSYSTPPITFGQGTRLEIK
B3: BSPSMA/CD3-800 CD3 arm (antibody, V domains shown)
VH: B1 VH with D99Y, M111L
VL: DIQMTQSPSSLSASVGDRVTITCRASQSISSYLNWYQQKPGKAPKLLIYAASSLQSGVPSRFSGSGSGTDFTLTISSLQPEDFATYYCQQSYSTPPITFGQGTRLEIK
B4: BSPSMA/CD3-1600 CD3 arm (antibody, V domains shown)
VH: B1 VH with I58K
VL: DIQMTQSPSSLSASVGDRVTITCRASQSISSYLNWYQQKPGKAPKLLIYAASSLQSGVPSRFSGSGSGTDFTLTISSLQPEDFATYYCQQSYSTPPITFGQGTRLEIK
B5: BSPSMA/CD3-1700 CD3 arm (antibody, V domains shown)
VH: B1 VH with I58K, D99Y, H108Y
VL: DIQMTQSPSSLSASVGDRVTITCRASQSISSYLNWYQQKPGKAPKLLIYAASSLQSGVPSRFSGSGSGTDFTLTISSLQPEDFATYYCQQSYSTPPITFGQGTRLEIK
B6: BSPSMA/CD3-2100 CD3 arm (antibody, V domains shown)
VH: B1 VH with I58K, H108Y
VL: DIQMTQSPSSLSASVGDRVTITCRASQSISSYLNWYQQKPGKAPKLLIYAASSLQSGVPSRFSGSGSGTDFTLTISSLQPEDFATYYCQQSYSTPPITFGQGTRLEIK
B7: BSPSMA/CD3-1400 CD3 arm (antibody, V domains shown)
VH: B1 VH with D99Y
VL: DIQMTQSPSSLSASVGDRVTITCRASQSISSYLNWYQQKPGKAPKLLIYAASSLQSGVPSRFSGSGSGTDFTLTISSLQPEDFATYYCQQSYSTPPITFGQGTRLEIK
B8: BSPSMA/CD3-1300 CD3 arm (antibody, V domains shown)
VH: B1 VH with D99Y, H108Y, M111L
VL: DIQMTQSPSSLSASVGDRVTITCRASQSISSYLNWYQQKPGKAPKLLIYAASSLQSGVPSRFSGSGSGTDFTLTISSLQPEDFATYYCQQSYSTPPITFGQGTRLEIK
B9: BSPSMA/CD3-1000 CD3 arm (antibody, V domains shown)
VH: B1 VH with I58K, D99Y, H108Y, M111L
VL: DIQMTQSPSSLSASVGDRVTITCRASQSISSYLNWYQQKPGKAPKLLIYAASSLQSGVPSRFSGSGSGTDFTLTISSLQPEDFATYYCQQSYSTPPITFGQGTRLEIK
B10: BSPSMA/CD3-003 CD3 arm (antibody, V domains shown)
VH: B1 VH with I58K, D99Y, M111L
VL: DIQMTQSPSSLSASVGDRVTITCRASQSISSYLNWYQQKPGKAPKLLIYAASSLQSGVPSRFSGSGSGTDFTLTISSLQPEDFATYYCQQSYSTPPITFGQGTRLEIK
B11: BSPSMA/CD3-005 CD3 arm (antibody, V domains shown)
VH: B1 VH with D99Y, H108Y
VL: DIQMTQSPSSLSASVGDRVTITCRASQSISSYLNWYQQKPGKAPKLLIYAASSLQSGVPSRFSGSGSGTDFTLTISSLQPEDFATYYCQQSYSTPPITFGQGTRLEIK
B12: BSPSMA/CD3-900 CD3 arm (antibody, V domains shown)
VH: B1 VH with I58K, M111L
VL: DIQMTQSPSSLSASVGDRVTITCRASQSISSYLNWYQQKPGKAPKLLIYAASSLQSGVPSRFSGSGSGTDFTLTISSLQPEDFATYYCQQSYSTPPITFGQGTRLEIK
B13: BSPSMA/CD3-1100 CD3 arm (antibody, V domains shown)
VH: B1 VH with I58K, D99Y
VL: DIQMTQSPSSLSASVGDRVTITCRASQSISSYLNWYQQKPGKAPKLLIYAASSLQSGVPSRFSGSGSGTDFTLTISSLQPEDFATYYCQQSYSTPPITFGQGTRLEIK
B14: BSPSMA/CD3-1500 CD3 arm (antibody, V domains shown)
VH: B1 VH with I58K, H108Y, M111L
VL: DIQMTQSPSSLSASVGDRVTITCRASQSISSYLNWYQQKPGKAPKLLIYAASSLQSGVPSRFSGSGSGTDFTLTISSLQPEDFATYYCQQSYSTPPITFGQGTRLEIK
B15: BSPSMA/CD3-001 CD3 arm (antibody, V domains shown)
VH: EVQLVESGGGLVQPGRSLRLSCVASGFTFADFTMHWVRQAPGKGLEWVSGISWNSNSIDYADSVKGRFTISRDNAKKSLFLQMSSLRAEDTALYYCVKDRSGYSRFYYGMDVWGQGTTVTVSS
VL: EIVMTQSPATLSVSPGERAILSCRASQNINSNLAWYQQKPGQAPRLLIYGASTRATGVPARFSGSGSGTEFTLTIRSLQSEDFAVYYCQQYYNWPITFGHGTRLEIK
B16: H1M3549N (antibody, V domains shown)
VH: EVQLVESGGGLVQPGRSLRLSCVASGFPFADYTMHWVRQAPGKGLEWVSDISWNSGSIGYADSVKGRFTISRDNAKNSLYLQMNSLRTEDTALYYCAKDMSGYAHYFYYGMDVWGQGTTVTVSS
VL: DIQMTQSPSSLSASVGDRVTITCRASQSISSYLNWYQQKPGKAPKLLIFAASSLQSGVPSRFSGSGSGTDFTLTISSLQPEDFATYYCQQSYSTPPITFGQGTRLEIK
B17: H2M2710N (antibody, V domains shown)
VH: QVQLVESGGGVVQPGRSLRLSCAASGFTFRSFGMHWVRQAPGRGLEWVAMIYFDGKNKYYADSVRGRFTISRDNSKNTLYLEMSSLRAEDTAVYFCARGPGYNWLDPWGQGTLVTVSS
VL: EIVMTQSPATLSVSPGERATLSCRASQSVSRNLAWYQQKPGQAPRLLIYGASTRATGVPARFSGSGSGTEFTLTISSLQSEDFAVFHCQQYNNRPLTFGGGTEVEIK
B18: H1H5764P (antibody, V domains shown)
VH: QVQLVESGGGVVQPGRSLRLSCAASGFTFRSFGMHWVRQAPGKGLEWVAVISYDGNYKYYADSVKGRFTISRDNSKNTLYLQMNSLRAEDTAVHYCAKGAMVRGVPYNFYYGMDVWGQGTTVTVSS
VL: DIQMTQSPSSLSASVGDRVTITCRASQVIRNDLGWYQQKPGKAPKRLIYAASSLQSGIPSRFSGSGSGTEFTLTISSLQPEDFATYYCLQHNSYPYTFGQGTKLEIK
B19: BSPSMA/CD3-1400 PSMA arm (antibody, V domains shown)
VH: QVQLVESGGGVVQPGRSLRLSCAASGFTFSSYGMHWVRQAPGKGLEWVAVISYAGNNKYYADSVKGRFTVSRDNSKKTLYLQMNSLRSEDTAVYYCAKDSYYDFLTDPDVLDIWGQGTMVTVSS
VL: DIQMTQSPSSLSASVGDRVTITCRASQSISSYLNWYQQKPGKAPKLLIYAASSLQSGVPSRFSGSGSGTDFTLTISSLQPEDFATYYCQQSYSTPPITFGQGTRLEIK
B20: BSPSMA/CD3-1700 PSMA arm (antibody, V domains shown)
VH: B19 VH
VL: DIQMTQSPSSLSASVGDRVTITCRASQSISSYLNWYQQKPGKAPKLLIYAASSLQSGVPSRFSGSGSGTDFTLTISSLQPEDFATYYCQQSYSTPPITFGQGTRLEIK
B21: BSPSMA/CD3-1500 PSMA arm (antibody, V domains shown)
VH: B19 VH
VL: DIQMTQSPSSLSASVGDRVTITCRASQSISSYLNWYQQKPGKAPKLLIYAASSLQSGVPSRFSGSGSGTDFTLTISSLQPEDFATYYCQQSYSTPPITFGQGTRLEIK
B22: BSPSMA/CD3-1000 PSMA arm (antibody, V domains shown)
VH: B19 VH
VL: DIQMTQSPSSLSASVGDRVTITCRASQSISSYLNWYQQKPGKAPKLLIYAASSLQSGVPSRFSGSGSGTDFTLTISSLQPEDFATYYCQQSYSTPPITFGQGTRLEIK
B23: BSPSMA/CD3-1900 PSMA arm (antibody, V domains shown)
VH: B19 VH
VL: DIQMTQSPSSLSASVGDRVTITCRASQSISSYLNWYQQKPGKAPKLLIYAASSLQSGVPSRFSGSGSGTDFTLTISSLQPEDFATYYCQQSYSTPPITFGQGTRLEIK
B24: BSPSMA/CD3-1800 PSMA arm (antibody, V domains shown)
VH: B19 VH
VL: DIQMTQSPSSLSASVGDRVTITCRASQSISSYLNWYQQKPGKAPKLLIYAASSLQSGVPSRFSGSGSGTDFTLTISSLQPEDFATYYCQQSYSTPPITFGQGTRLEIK
B25: BSPSMA/CD3-400 PSMA arm (antibody, V domains shown)
VH: B19 VH
VL: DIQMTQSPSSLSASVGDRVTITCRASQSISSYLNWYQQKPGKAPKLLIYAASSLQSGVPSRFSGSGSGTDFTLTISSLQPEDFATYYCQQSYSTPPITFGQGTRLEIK
B26: BSPSMA/CD3-004 PSMA arm (antibody, V domains shown)
VH: B19 VH
VL: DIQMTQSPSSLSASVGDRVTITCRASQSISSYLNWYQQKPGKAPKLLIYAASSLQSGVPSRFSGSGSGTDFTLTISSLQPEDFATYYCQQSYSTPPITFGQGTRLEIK
B27: BSPSMA/CD3-2100 PSMA arm (antibody, V domains shown)
VH: B19 VH
VL: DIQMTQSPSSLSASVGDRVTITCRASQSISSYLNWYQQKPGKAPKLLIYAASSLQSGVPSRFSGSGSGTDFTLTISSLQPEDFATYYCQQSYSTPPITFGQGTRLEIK
B28: BSPSMA/CD3-200 PSMA arm (antibody, V domains shown)
VH: B19 VH
VL: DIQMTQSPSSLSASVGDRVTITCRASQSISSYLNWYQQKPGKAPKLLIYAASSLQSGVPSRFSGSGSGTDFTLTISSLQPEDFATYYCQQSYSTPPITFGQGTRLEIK
B29: BSPSMA/CD3-1300 PSMA arm (antibody, V domains shown)
VH: B19 VH
VL: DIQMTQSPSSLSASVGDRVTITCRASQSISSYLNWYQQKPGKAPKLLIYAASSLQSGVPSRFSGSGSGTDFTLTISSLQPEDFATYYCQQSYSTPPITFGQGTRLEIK
B30: BSPSMA/CD3-005 PSMA arm (antibody, V domains shown)
VH: B19 VH
VL: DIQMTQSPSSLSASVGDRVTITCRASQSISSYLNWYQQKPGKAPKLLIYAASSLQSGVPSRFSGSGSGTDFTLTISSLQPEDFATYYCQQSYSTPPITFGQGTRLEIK
B31: BSPSMA/CD3-1600 PSMA arm (antibody, V domains shown)
VH: B19 VH
VL: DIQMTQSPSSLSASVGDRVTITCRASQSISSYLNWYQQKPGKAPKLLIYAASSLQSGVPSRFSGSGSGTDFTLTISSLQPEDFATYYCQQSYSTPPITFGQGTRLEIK
B32: BSPSMA/CD3-1100 PSMA arm (antibody, V domains shown)
VH: B19 VH
VL: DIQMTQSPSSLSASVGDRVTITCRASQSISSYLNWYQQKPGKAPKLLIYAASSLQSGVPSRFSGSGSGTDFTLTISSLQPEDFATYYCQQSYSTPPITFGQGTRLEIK
B33: BSPSMA/CD3-900 PSMA arm (antibody, V domains shown)
VH: B19 VH
VL: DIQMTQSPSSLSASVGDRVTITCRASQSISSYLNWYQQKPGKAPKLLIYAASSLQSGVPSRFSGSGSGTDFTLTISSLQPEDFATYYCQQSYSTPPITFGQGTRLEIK
B34: BSPSMA/CD3-300 PSMA arm (antibody, V domains shown)
VH: B19 VH
VL: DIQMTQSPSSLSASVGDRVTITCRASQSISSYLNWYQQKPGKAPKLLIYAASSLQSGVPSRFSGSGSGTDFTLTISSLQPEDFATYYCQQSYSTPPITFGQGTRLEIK
B35: BSPSMA/CD3-003 PSMA arm (antibody, V domains shown)
VH: B19 VH
VL: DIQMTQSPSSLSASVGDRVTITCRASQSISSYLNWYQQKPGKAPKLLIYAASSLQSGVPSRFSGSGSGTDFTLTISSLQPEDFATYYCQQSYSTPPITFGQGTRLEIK
B36: BSPSMA/CD3-1200 PSMA arm (antibody, V domains shown)
VH: B19 VH
VL: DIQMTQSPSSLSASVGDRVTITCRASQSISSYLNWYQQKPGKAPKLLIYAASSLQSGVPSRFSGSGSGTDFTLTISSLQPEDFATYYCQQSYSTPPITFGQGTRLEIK
B37: BSPSMA/CD3-800 PSMA arm (antibody, V domains shown)
VH: B19 VH
VL: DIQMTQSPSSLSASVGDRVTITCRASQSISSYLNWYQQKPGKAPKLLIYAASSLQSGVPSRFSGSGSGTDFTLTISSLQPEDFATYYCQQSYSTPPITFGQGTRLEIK
B38: H1H5758B (antibody, V domains shown)
VH: EVQLVESGGGVVQPGRSLRLSCAASGFTFSSYGMHWVRQAPGKGLEWVTVILHDGSNRYYADSVKGRFTISRDNSKNTLYLQMNILRAEDTAVYYCTKGAMVRGVPYNHYYGMDVWGQGTTVTVSS
VL: DIVMTQSPSSLSASVGDRVTITCRASQGIRNDLGWYQQKPGKAPKRLIYAASNLQSGVPSRFSGSGSGTEFTLTISSLQPEDFATYYCLQHNSYPYTFGQGTKLEIKR
B39: H1H5786B (antibody, V domains shown)
VH: QVQLVESGAEVKKPGASVKVSCKTSGYTFTGYYMHWIRQAPGQGLEWMGWINPKSGGTNYAQKFQGRVTMTRDTSISTAYMELSRLRSDDMAVYYCARMGDGAVFDFWGQGTLVTVSS
VL: AIQMTQSPSSLSASVGDRVTITCRASQRISSFLNWYQQKPGKAPKLLIYTASNLQNGVPSRFSGSGSGTDFTLTISSLQPEDFATYYCQQSYRTPLTFGGGTKVEIKR

These binders were tested against human CD3 epsilon/delta heterodimer, Fc-tagged (human) (assay: SPR, 37C).
Sequence of human CD3 epsilon/delta heterodimer, Fc-tagged (human) (chain, as listed by the source mutant, chain 1 of 2): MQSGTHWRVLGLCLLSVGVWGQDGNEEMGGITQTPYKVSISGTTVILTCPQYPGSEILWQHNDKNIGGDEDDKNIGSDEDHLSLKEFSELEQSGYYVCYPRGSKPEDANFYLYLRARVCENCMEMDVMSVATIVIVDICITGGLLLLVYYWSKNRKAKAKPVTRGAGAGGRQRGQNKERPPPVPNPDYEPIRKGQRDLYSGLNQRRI
Sequence of human CD3 epsilon/delta heterodimer, Fc-tagged (human) (chain, as listed by the source mutant, chain 2 of 2): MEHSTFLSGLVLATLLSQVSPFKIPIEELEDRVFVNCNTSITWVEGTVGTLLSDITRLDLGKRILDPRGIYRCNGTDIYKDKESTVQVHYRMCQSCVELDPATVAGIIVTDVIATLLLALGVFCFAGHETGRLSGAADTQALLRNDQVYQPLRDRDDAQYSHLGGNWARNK

Kd [µM]	Binder
0.115	B1
0.0642	B2
0.0194	B3
0.0378	B4
0.0652	B5
0.0775	B6
0.0533	B7
0.122	B8
0.185	B9
0.00578	B10
0.334	B11
0.113	B12
0.0111	B13
0.0829	B14

Each binder was assayed against human CD3 on Jurkat cells (human) (assay: FACS).
Sequence of human CD3 on Jurkat cells (human) (chain, as listed by the source, chain 1 of 2): as the sequence (chain, as listed by the source mutant, chain 1 of 2) above
Sequence of human CD3 on Jurkat cells (human) (chain, as listed by the source, chain 2 of 2): as the sequence (chain, as listed by the source mutant, chain 2 of 2) above

EC50 [µM]	Binder
0.0391	B15
0.0607	B1
0.0472	B2
0.0568	B4
0.2	B5
0.106	B6
0.0319	B7
0.102	B8
0.277	B9
0.21	B11
0.274	B12
0.0183	B13
0.093	B14

Target: human CD3 on Jurkat cells (human)
Assay: FACS
Remark: another data set of the same source

EC50 [µM]	Binder
0.0023	B16
0.00071	B17

These binders were tested against human CD3 epsilon/delta heterodimer, Fc-tagged (human) (assay: SPR, 25C antigen-capture).

Kd [µM]	Binder
0.021	B18

Each binder was assayed against human PSMA on cells (human) (assay: FACS, B16F10.9/PSMA).
Sequence of human PSMA on cells (human) (A4UU12 whole entry): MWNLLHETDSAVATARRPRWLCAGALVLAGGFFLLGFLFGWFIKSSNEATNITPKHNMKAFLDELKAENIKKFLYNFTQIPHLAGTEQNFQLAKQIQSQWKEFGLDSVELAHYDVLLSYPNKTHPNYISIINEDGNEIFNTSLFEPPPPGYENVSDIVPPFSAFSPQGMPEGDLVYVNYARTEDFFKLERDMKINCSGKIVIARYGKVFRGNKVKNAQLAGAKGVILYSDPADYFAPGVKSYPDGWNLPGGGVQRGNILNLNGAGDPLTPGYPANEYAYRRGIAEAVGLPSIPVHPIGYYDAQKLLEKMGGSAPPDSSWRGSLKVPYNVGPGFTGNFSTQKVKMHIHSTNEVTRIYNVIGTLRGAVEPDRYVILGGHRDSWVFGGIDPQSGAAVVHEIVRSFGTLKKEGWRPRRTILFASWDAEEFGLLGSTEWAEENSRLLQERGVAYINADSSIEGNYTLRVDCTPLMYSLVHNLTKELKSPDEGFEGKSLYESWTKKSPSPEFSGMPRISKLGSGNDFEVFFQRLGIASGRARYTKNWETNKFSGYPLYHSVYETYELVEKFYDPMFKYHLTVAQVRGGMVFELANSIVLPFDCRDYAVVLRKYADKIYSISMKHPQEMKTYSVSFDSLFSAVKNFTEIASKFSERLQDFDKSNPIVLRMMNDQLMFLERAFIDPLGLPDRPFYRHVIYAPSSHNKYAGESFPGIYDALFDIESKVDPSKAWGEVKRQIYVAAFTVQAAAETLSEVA

EC50 [µM]	Binder
0.0013	B19
0.00134	B20
0.00121	B21
0.00119	B22
0.00135	B23
0.00216	B24
0.00172	B25
0.00131	B26
0.00114	B27
0.00188	B28
0.00125	B29
0.00209	B30
0.00103	B31
0.00103	B32
0.00143	B33
0.0019	B34
0.00226	B35
0.00116	B36
0.00131	B37

Target: human CD3 on Jurkat cells (human)
Assay: FACS
Remark: another data set of the same source

EC50 [µM]	Binder
0.00088	B18
0.0019	B38
0.0011	B39

Target: T1, cynomolgus CD3 on T cells
Assay: FACS

EC50 [µM]	Binder
0.0196	B3
3.35	B5
0.17	B7
2.17	B8
0.0142	B10
6.14	B11
0.89	B13

Target: T1, cynomolgus CD3 on T cells
Assay: FACS
Remark: another data set of the same source

binding result	Binder
no binding	B1
no binding	B2
no binding	B4
no binding	B6
no binding	B9
no binding	B12
no binding	B14
